Data from paper PMC10801562 (Antibodies, 2024).
Positions count from the first letter of the chain named.

Columns and labels:
Settings in all cases: both partners purified
[1] = molecular target: T1, recombinant human HER2 (Sino Biological, 10004-H08H) (Homo sapiens, UniProt P04626); assay: SPR; Biacore T200, 37 °C, pH 7.4, PB-P+ (0.05 mol/L Na-phosphate, 0.15 mol/L NaCl, 0.05% P-20); antibody captured (200 RU) by anti-mouse IgG (Fc) antibody on a CM4 chip; human HER2 as analyte, 6.3-100 nmol/L; 1:1 binding model
T1 construct: human epidermal growth factor receptor 2 (HER2), recombinant; also called human epidermal growth factor receptor 2; source: bought: Sino Biological

[2] = molecular target: T2, recombinant human CD3ε-CD3δ heterodimeric protein (CD3εδ) (Homo sapiens); assay: SPR; Biacore T200, 37 °C, pH 7.4, PB-P+; antibody captured (630 RU) by anti-mouse IgG (Fc) antibody on a CM4 chip; human CD3εδ as analyte, 18.8-19,200 nmol/L (mHIT3a, mOKT3) or 75-76,800 nmol/L (m12F6); steady state model
T2 construct: human CD3ε of the recombinant CD3εδ heterodimer; human CD3δ of the recombinant CD3εδ heterodimer; source: in-house prepared
T2 chain 1: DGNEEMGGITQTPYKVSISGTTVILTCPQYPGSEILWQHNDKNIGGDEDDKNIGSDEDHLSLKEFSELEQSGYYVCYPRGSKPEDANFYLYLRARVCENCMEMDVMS
T2 chain 2: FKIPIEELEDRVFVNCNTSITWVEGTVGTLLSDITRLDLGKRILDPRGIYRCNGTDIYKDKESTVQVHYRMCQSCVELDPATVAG

[3] = molecular target: T2, recombinant human CD3ε-CD3δ …; assay: SPR; Biacore T200, 37 °C, pH 7.4, PB-P+; antibody captured (630 RU) by anti-mouse IgG (Fc) antibody on a CM4 chip; human CD3εδ as analyte, 1.2-4800 nmol/L; 1:1 binding model (mUCHT1, mSP34)

B1: m4D5 mIgG1, homodimeric antibody without FAST-Ig mutations (antibody, V domains shown)
VH: QVQLQQSGPELVKPGASLKLSCTASGFNIKDTYIHWVKQRPEQGLEWIGRIYPTNGYTRYDPKFQDKATITADTSSNTAYLQVSRLTSEDTAVYYCSRWGGDGFYAMDYWGQGASVTVSS
VL: DIVMTQSHKFMSTSVGDRVSITCKASQDVNTAVAWYQQKPGHSPKLLIYSASFRYTGVPDRFTGSRSGTDFTFTISSVQAEDLAVYYCQQHYTTPPTFGGGTKVEIK
notes: VH of the original mouse antibody m4D5; mouse IgG1 (mIgG1) heavy chain constant region; numbers count on: Eu numbering; VL of m4D5; mouse kappa light chain constant region (CL); Whole IgG of one HC and one LC; also called anti-HER2; H1L1H1L1; source: Expi293F, transiently expressed, purified (Ab-Capcher MAG2 or MonoSpin ProG); copies: 2 + 2
Question: How did the Kd [1] turn out when B1 was run?
Answer: Its Kd is 1.03 nM.

B2: mOKT3 mIgG1 V1+C19, homodimeric antibody with FAST-Ig V1+C19 mutations (antibody, V domains shown)
VH: not shown
VL: QIVLTQSPAIMSASPGEKVTMTCSASSSVSYMNWYQKKSGTSPKRWIYDTSKLASGVPAHFRGSGSGTSYSLTISGMEAEDAATYYCQQWSSNPFTFGSGTKLEIN
notes: VH of mOKT3; mouse IgG1 (mIgG1) heavy chain constant region; numbers count on: Eu numbering; VL of mOKT3; mouse kappa light chain constant region (CL); numbers count on: Kabat numbering; Whole IgG of one HC and one LC; also called anti-CD3; H2L2H2L2; source: Expi293F, transiently expressed, purified (Ab-Capcher MAG2 or MonoSpin ProG); copies: 2 + 2
Question: B2 was tested. Which Kd [2] did it give?
Answer: Its Kd is 4480 nM.

B3: mHIT3a mIgG1 V1+C19, homodimeric antibody with FAST-Ig V1+C19 mutations (antibody, V domains shown)
VH: QVQLQESGAELARPGASVKMSCKASGYTFTRYTMHWVKERPGQGLEWIGYINPSRGYTNYNQKFKDKATLTTDKSSSTAYMELTRLTSEDSAVYYCARYYDDHYCLDYWGQGTTVTVSS
VL: B2 VL with Q1D, V3E, H60R, R62S, I105L, N106K
notes: VH of mHIT3a; mouse IgG1 (mIgG1) heavy chain constant region; numbers count on: Eu numbering; VL of mHIT3a; mouse kappa light chain constant region (CL); numbers count on: Kabat numbering; Whole IgG of one HC and one LC; also called anti-CD3; H2L2H2L2; source: Expi293F, transiently expressed, purified (Ab-Capcher MAG2 or MonoSpin ProG); copies: 2 + 2
Question: B3 was tested. Which Kd [2] did it give?
Answer: Its Kd is 8320 nM.

B4: m12F6 mIgG1 V1+C19, homodimeric antibody with FAST-Ig V1+C19 mutations (antibody, V domains shown)
VH: QVQLQQSGAELARPGASVKMSCKASGYTFTSYTMHWVKERPGQGLEWIGYINPSSGYTKYNQKFKDKATLTADKSSSTAYMQLSSLTSEDSAVYYCARWQDYDVYFDYWGQGTTLTVSS
VL: QIVLSQSPAILSASPGEKVTMTCRASSSVSYMHWYQKKPGSSPKPWIYATSNLASGVPARFSGSGSGTSYSLTISRVEAEDAATYYCQQWSSNPPTFGGGTKLETK
notes: VH of m12F6; mouse IgG1 (mIgG1) heavy chain constant region; numbers count on: Eu numbering; VL of m12F6; mouse kappa light chain constant region (CL); numbers count on: Kabat numbering; Whole IgG of one HC and one LC; also called anti-CD3; H2L2H2L2; source: Expi293F, transiently expressed, purified (Ab-Capcher MAG2 or MonoSpin ProG); copies: 2 + 2
Question: For B4, which Kd [2] is on record?
Answer: The Kd was 16100 nM.

B5: mSP34 mIgG1 V1+C19, homodimeric antibody with FAST-Ig V1+C19 mutations (antibody, V domains shown)
VH: EVQLVESGGGLVQPKGSLKLSCAASGFTFNTYAMNWVREAPGKGLEWVARIRSKYNNYATYYADSVKDRFTISRDDSQSILYLQMNNLKTEDTAMYYCVRHGNFGNSYVSWFAYWGQGTLVTVSA
VL: QAVVTQESALTTSPGETVTLTCRSSTGAVTTSNYANWVQKKPDHLFTGLIGGTNKRAPGVPARFSGSLIGDKAALTITGAQTEDEAIYFCALWYSNLWVFGGGTKLTVL
notes: VH of mSP34; mouse IgG1 (mIgG1) heavy chain constant region; numbers count on: Eu numbering; VL (lambda) of mSP34; mouse lambda light chain constant region (CL); numbers count on: Kabat numbering; Whole IgG of one HC and one LC; also called anti-CD3; H2L2H2L2; source: Expi293F, transiently expressed, purified (Ab-Capcher MAG2 or MonoSpin ProG); copies: 2 + 2
Question: B5 was tested. Which Kd [3] did it give?
Answer: The Kd was 56.9 nM.

B6: mUCHT1 mIgG1 V1+C19, homodimeric antibody with FAST-Ig V1+C19 mutations (antibody, V domains shown)
VH: EVQLQQSGPELVKPGASMKISCKASGYSFTGYTMNWVKESHGKNLEWMGLINPYKGVSTYNQKFKDKATLTVDKSSSTAYMELLSLTSEDSAVYYCARSGYYGDSDWYFDVWGQGTTLTVFS
VL: DIQMTQTTSSLSASLGDRVTISCRASQDIRNYLNWYQKKPDGTVKLLIYYTSRLHSGVPSKFSGSGSGTDYSLTISNLEQEDIATYFCQQGNTLPWTFAGGTKLEIK
notes: VH of mUCHT1; mouse IgG1 (mIgG1) heavy chain constant region; numbers count on: Eu numbering; VL of mUCHT1; mouse kappa light chain constant region (CL); numbers count on: Kabat numbering; Whole IgG of one HC and one LC; also called anti-CD3; H2L2H2L2; source: Expi293F, transiently expressed, purified (Ab-Capcher MAG2 or MonoSpin ProG); copies: 2 + 2
Question: How did the Kd [3] turn out when B6 was run?
Answer: The Kd was 1.32 nM.

B7: m4D5 mIgG2a, homodimeric antibody without FAST-Ig mutations (antibody, V domains shown)
VH: B1 VH
VL: B1 VL
notes: VH of the original mouse antibody m4D5; mouse IgG2a (mIgG2a) heavy chain constant region; numbers count on: Eu numbering; VL of m4D5; mouse kappa light chain constant region (CL); Whole IgG of one HC and one LC; also called anti-HER2; H1L1H1L1; source: Expi293F, transiently expressed, purified (Ab-Capcher MAG2, MonoSpin ProA or MonoSpin ProG); copies: 2 + 2
Question: With B7 as the binder, how does the Kd [1] read?
Answer: The Kd was 1.14 nM.

B8: m2C4 mIgG2a, homodimeric antibody without FAST-Ig mutations (antibody, V domains shown)
VH: EVQLQQSGPELVKPGTSVKISCKASGFTFTDYTMDWVKQSHGKSLEWIGDVNPNSGGSIYNQRFKGKASLTVDRSSRIVYMELRSLTFEDTAVYYCARNLGPSFYFDYWGQGTTLTVSS
VL: DTVMTQSHKIMSTSVGDRVSITCKASQDVSIGVAWYQQRPGQSPKLLIYSASYRYTGVPDRFTGSGSGTDFTFTISSVQAEDLAVYYCQQYYIYPYTFGGGTKLEIK
notes: VH of the original mouse antibody m2C4; mouse IgG2a (mIgG2a) heavy chain constant region; numbers count on: Eu numbering; VL of the original mouse antibody m2C4; mouse kappa light chain constant region (CL); Whole IgG of one HC and one LC; also called anti-HER2; H1L1H1L1; source: Expi293F, transiently expressed, purified (Ab-Capcher MAG2, MonoSpin ProA or MonoSpin ProG); copies: 2 + 2
Question: For B8, which Kd [1] is on record?
Answer: The Kd was 1.08 nM.

B9: mHIT3a mIgG2a, homodimeric antibody without FAST-Ig mutations (antibody, V domains shown)
VH: B3 VH with E39Q
VL: B2 VL with Q1D, V3E, K37Q, H60R, R62S, I105L, N106K
notes: VH of the original mouse antibody mHIT3a; mouse IgG2a (mIgG2a) heavy chain constant region; numbers count on: Eu numbering; VL of the original mouse antibody mHIT3a; mouse kappa light chain constant region (CL); Whole IgG of one HC and one LC; also called anti-CD3; H2L2H2L2; source: Expi293F, transiently expressed, purified (Ab-Capcher MAG2, MonoSpin ProA or MonoSpin ProG); copies: 2 + 2
Question: For B9, which Kd [2] is on record?
Answer: Its Kd is 10400 nM.

B10: m12F6 mIgG2a, homodimeric antibody without FAST-Ig mutations (antibody, V domains shown)
VH: B4 VH with E39Q
VL: B4 VL with K37Q
notes: VH of the original mouse antibody m12F6; mouse IgG2a (mIgG2a) heavy chain constant region; numbers count on: Eu numbering; VL of the original mouse antibody m12F6; mouse kappa light chain constant region (CL); Whole IgG of one HC and one LC; also called anti-CD3; H2L2H2L2; source: Expi293F, transiently expressed, purified (Ab-Capcher MAG2, MonoSpin ProA or MonoSpin ProG); copies: 2 + 2
Question: B10 was tested. Which Kd [2] did it give?
Answer: The Kd was 16700 nM.

B11: m2C4 mIgG1, homodimeric antibody without FAST-Ig mutations (antibody, V domains shown)
VH: B8 VH
VL: B8 VL
notes: VH of the original mouse antibody m2C4; mouse IgG1 (mIgG1) heavy chain constant region; numbers count on: Eu numbering; VL of the original mouse antibody m2C4; mouse kappa light chain constant region (CL); Whole IgG of one HC and one LC; also called anti-HER2; H1L1H1L1; source: Expi293F, transiently expressed, purified (Ab-Capcher MAG2 or MonoSpin ProG); copies: 2 + 2
Question: B11 was tested. Which Kd [1] did it give?
Answer: Its Kd is 0.759 nM.
